Assay results published in PMC3883677, “The Quaternary Structure of the Recombinant Bovine Odorant-Binding Protein Is Modulated by Chemical Denaturants” (PLoS ONE, 2014).

Target: the molecule itself
Test: SEC; Superdex-75 PC 3.2/30, calibrated with mass standards; 20 mM Na-phosphate pH 7.8, no GdnHCl; protein 0.1-0.2 mg/ml; monomer to dimer

B1: recombinant bovine odorant-binding protein (natural protein)
chain: AQEEEAEQNLSELSGPWRTVYIGSTNPEKIQENGPFRTYFRELVFDDEKGTVDFYFSVKRDGKWKNVHVKATKQDDGTYVADYEGQNVFKIVSLSRTHLVAHNINVDKHGQTTELTELFVKLNVEDEDLEKFWKLTEDKGIDKKNVVNFLENEDHPHPE
notes: PDB 1OBP is the cited crystal structure of the native tissue-extracted bOBP dimer (domain-swapped); also called bOBP; recombinant bOBP; source: E. coli BL21(DE3), plasmid pT7-7-bOBP, purified (Ni-agarose, HisGraviTrap)
- stoichiometry N: 2
